Assay [1] addresses human VLA4 (integrin alpha4beta1) on the surface of U937 cells (human, UniProt P13612 34-1032; P05556 21-798). Briefly: cell-based or functional assay.
Assay [2] addresses T1, human VLA4-Fc (alpha4-Fc/beta1-Fc heterodimer) (human).
T1 construct: Soluble heterodimer from CHO cells, Protein A purified; also called VLA-Fc
Briefly: ELISA, VLA4-Fc coated, 1 mM MnCl2; from EC50 values. How it is done: The relative binding affinities of various 2D-VCAM-1 variants to immobilized VLA4-Fc (α4-β1-Fc) heterodimer, relative to a control protein (e.g., Q38L-2D-VCAM-1 or to human 2D-VCAM-1), were deter using a solid-phase ELISA assay. MAXISORP™ ELISA plates (NUNC) were coated overnight at 4° C. with 50 ul VLA4-Fc heterodimer, 2 ug/ml in TBS-M (TBS (25 mM Tris-HCl pH 7.5, 150 mM NaCl) with 1 mM MnCl2), washed with TBS-T (TBS with 0.05% TWEEN-20), blocked with 200 ul 3% milk in TBS-M for 1 h at room temperature, and washed again with TBS-T. A four-fold dilution series of the purified 2D-VCAM variants to be assayed was made in COSTAR U-bottom plates in TBS-TMC (TBS with 0.05% Tween-20, 1 mM MnCl2, and 1% casein; Sigma) with a starting concentration of 8.2 uM (200 ug/ml). The dilution series was transferred into the ELISA plate which was incubated at room temperature for 2 h and subsequently washed with TBS-T. Bound 2D-VCAM protein was detected by incubation with 0.5 ug/ml of biotinylated anti-human VCAM antibody (R&D Systems, Catalog No. BAF809) in TBS-TMC for 1 h at room temperature followed by a TBS-MT (TBS plus 1 mM MnCl2 and 0.02% TWEEN-20) wash and subsequent incubation with 1:2000 dilution of streptavidin-HRP (BD Biosciences, Catalog No. 554066) in TBS-TMC for 30 min at room temperature. […] Typical development times ranged from […] and development was stopped by addition of 50 ul 2M H₂SO₄ (EM, Catalog No. SX1244-75). […] Fold-improvement in binding was calculated relative to a control protein (e.g., Q38L-2D-VCAM-1 or human 2D-VCAM-1) assayed on the same plate.

For assay [3], the target named is T1, human VLA4-Fc (alpha4-Fc/beta1-Fc …). Briefly: ELISA, VLA4-Fc coated, 1 mM MnCl2; from EC50 values; ELISA, VLA4-Fc coated on plate, 1 mM MnCl2 (activated VLA4); fold relative to Q38L-2D-VCAM-1. The procedure:
The relative binding affinities of various 2D-VCAM-1 variants to immobilized VLA4-Fc (α4-β1-Fc) heterodimer, relative to a control protein (e.g., Q38L-2D-VCAM-1 or to human 2D-VCAM-1), were deter using a solid-phase ELISA assay. […] The dilution series was transferred into the ELISA plate which was incubated at room temperature for 2 h and subsequently washed with TBS-T. Bound 2D-VCAM protein was detected by incubation with 0.5 ug/ml of biotinylated anti-human VCAM antibody (R&D Systems, Catalog No. BAF809) in TBS-TMC for 1 h at room temperature followed by a TBS-MT (TBS plus 1 mM MnCl2 and 0.02% TWEEN-20) wash and subsequent incubation with 1:2000 dilution of streptavidin-HRP (BD Biosciences, Catalog No. 554066) in TBS-TMC for 30 min at room temperature. […] Fold-improvement in binding was calculated relative to a control protein (e.g., Q38L-2D-VCAM-1 or human 2D-VCAM-1) assayed on the same plate.
In general terms: ELISA stands for enzyme-linked immunosorbent assay.

Assay [4] shares this target. Briefly: SPR (BIACORE), VLA4-Fc captured by anti-human IgG, 1 mM MnCl2, 1:1 Langmuir; standard BIACORE assay, first preparation (Table 5A); activated VLA4 (Mn2+). The procedure:
All BIACORE analyses were performed on a BIACORE 2000 system or BIACORE 3000 system (GE Healthcare) at room temperature (RT, 25° C.), HBS-P buffer (10 mM Hepes (pH 7.4), 150 mM NaCl, 0.005% surfactant P20) supplemented with 1 mM MnCl₂ (HBS-P-Mn) was used as the flow buffer for all experiments except where indicated.
The kinetic 2D-VCAM-1 assay measures binding kinetics of a dimeric ligand (e.g., VLA-Fc fusion protein or LPAM-1-Fc fusion protein) coated to sensor chips and monomeric analyte (e.g., 2D-VCAM-1 variant polypeptides) in the mobile phase. Goat anti-human IgG antibody (Jackson ImmunoResearch, Catalog No. 105-005-098) was immobilized on CM-5 sensor chips (GE Healthcare, Catalog No. BR-1000-14) according to the manufacturer's protocol. Antibody was diluted to 30 μg/ml in immobilization buffer (10 mM sodium acetate, pH 5.0 (GE Healthcare, Catalog No. BR-1003-51)). […] Un-reacted sites were quenched with 35 μl of 1 M ethanolamine-HCl pH 8.5 (GE Healthcare, Catalog No. BR-1000-50). This procedure typically yielded 15,000 response units (RU) of coupled antibody. VLA4-Fc or LPAM-1-Fc, prepared as described in Examples 3 and 4, respectively, were bound to antibody-coated sensor chips by injection of 20 μl of ligand solution (20 μg/ml protein in HBS-P-Mn buffer at a flow rate of 10 μl/min). Ligand capture levels were typically 200-300 RU. […]

As usually defined, the Kd is the constant that tells how readily two partners part at equilibrium. High values mean weaker binding, low ones tighter binding.

Positions count from the first letter of the chain named. Numbers in names are those of the source. Where “and” joins values, the source holds several entries; their conditions need not be identical. Equal entries are not always repeated.

Sequence of human VLA4 (integrin alpha4beta1) on the surface of U937 cells (P13612 34-1032, chain 1 of 2): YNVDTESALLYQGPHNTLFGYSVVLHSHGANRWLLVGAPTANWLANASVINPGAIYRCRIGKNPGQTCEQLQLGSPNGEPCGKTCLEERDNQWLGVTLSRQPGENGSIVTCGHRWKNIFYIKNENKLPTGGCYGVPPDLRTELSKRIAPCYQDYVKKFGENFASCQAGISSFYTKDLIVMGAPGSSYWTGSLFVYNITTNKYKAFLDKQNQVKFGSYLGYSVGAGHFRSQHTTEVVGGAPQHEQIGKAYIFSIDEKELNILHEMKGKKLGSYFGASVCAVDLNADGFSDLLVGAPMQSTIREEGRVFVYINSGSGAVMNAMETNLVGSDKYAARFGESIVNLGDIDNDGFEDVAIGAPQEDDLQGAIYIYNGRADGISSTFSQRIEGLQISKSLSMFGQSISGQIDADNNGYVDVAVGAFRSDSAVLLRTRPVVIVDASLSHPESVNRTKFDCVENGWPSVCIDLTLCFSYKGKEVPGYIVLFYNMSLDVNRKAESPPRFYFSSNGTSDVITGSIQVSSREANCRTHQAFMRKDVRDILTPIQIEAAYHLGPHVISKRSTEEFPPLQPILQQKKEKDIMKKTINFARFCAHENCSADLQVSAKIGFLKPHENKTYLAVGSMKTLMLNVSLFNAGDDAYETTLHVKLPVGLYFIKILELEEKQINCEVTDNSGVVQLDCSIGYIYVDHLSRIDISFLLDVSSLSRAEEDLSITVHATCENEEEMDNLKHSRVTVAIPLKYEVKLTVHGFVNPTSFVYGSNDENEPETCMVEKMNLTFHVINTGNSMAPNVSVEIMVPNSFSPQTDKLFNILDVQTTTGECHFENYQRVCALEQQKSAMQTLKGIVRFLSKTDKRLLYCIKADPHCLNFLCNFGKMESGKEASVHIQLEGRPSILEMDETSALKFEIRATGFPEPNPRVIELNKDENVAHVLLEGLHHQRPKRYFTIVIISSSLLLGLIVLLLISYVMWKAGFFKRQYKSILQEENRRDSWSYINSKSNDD
Sequence of human VLA4 (integrin alpha4beta1) on the surface of U937 cells (P05556 21-798, chain 2 of 2): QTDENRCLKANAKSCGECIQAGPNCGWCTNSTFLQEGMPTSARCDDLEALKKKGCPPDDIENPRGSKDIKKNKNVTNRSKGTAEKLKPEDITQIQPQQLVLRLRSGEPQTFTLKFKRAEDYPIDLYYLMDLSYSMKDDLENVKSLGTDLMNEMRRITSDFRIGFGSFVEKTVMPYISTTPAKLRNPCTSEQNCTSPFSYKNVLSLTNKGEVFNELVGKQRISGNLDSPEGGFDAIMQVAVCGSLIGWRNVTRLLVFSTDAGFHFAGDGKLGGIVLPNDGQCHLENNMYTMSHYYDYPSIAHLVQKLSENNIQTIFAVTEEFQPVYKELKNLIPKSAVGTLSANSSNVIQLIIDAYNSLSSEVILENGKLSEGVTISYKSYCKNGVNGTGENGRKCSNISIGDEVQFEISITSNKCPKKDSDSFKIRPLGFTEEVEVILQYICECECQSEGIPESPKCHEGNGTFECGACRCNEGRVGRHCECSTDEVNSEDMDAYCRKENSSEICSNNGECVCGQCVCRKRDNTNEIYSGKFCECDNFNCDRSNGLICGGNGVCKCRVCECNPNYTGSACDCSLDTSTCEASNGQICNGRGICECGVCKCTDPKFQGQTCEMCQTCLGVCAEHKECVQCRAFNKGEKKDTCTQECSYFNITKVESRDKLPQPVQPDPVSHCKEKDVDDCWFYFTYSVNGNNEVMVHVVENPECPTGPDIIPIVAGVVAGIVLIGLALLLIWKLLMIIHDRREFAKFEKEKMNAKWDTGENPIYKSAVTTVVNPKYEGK
T1 sequence (chain, as listed by the source limits assumed, form in doubt, chain 1 of 2): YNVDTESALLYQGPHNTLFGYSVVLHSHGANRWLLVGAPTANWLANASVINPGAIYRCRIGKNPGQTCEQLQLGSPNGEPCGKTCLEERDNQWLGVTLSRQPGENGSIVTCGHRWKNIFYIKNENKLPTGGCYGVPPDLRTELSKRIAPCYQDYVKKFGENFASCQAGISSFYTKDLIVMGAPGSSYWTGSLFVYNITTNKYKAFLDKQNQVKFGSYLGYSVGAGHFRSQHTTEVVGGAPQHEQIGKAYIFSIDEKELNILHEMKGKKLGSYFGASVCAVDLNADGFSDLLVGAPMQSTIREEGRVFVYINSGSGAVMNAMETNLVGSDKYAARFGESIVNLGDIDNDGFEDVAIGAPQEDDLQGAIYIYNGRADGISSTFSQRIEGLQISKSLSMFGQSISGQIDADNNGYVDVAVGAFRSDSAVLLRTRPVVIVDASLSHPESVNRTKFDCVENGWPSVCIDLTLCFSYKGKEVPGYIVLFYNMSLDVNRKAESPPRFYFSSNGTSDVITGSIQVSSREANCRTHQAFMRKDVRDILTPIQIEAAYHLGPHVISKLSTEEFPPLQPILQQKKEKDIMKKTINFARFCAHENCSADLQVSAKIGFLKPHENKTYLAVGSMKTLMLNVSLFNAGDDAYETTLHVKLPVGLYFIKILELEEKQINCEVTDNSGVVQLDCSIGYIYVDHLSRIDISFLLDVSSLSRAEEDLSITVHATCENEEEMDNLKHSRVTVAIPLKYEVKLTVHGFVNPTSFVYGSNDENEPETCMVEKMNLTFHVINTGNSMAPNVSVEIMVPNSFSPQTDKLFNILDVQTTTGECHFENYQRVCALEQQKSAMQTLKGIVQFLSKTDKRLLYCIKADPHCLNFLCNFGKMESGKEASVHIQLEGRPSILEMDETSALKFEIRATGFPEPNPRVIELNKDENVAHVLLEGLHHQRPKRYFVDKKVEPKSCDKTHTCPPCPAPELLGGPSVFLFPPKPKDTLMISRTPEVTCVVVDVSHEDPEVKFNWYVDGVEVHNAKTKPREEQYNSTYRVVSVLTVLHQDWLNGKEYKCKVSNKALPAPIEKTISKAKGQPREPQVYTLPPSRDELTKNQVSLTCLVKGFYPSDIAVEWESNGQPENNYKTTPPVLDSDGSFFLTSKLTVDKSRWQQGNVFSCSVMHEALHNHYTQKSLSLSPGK
T1 sequence (chain, as listed by the source limits assumed, form in doubt, chain 2 of 2): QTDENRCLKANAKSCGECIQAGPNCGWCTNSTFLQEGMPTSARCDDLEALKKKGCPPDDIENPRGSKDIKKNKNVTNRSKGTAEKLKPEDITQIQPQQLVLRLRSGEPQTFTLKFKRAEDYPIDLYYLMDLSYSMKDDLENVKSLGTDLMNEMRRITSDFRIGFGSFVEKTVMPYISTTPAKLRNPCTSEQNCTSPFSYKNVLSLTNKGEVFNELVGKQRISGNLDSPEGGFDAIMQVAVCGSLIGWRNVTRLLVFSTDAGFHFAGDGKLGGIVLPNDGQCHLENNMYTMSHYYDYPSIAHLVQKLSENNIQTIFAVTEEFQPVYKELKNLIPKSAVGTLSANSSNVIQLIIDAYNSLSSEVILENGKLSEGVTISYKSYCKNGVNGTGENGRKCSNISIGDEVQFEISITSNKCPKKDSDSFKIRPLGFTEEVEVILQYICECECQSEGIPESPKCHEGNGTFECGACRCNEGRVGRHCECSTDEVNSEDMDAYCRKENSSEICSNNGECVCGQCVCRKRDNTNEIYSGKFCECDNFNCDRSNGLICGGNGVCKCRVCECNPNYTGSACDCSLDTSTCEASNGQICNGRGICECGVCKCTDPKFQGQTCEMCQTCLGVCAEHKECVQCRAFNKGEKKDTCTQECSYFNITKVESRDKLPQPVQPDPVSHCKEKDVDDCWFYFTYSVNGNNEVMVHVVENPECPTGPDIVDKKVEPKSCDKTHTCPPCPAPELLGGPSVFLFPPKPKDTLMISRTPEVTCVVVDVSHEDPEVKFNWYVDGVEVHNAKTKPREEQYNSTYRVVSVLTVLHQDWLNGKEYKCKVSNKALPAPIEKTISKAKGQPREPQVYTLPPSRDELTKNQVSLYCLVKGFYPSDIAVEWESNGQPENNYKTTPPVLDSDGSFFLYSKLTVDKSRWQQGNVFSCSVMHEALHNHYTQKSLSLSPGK

B1: 2D-VCAM-1 variant Clone 46 (ligand)
chain: FKIETTPESRYLAQIGDSVSLTCSTTGCESPFFSWRPQLDAPLNGKVTNEGTTSTLTMNPVSFGNEHSYLCTATCESRKLEKGIQVEIYSFPKDPEIHLSGPLEAGKPITVKCSVADVYPFDRLEIDLLKGDHLMKSQEFLEDADRKSLETKSLEVTFTPVIEDIGKVLVCRAKLHIDEMDSVPTVRQAVKELQVYISP
notes: also called Clone 046; not shown: His tag
Consider B1, for which, in assay [1], the “IC50 of inhibition of U937 cell adhesion to immobilized 7D-VCAM-1” value was 6.4 nM and 0.16 mg/ml. Further, in assay [2], the “fold-improvement in binding relative to Q38L-2D-VCAM-1” value is 21 fold and the “fold-improvement in binding relative to human 2D-VCAM-1” value turned out to be 172 fold.

B2: 2D-VCAM-1 variant Clone 59 (ligand)
chain: B1 chain with Q38L, A41S, L141F, D145A, R146W
notes: also called Clone 059; not shown: His tag
On to B2, for which, in assay [2], the “fold-improvement in binding relative to Q38L-2D-VCAM-1” value was determined as 34 fold and the “fold-improvement in binding relative to human 2D-VCAM-1” value was 272 fold.

B3: 2D-VCAM-1 variant Clone 47 (ligand)
chain: B1 chain with Q38L, A41S
notes: also called Clone 047; not shown: His tag
For B3, in assay [2], the “fold-improvement in binding relative to Q38L-2D-VCAM-1” value was found to be 16 fold and the “fold-improvement in binding relative to human 2D-VCAM-1” value came to 128 fold.

B4: 2D-VCAM-1 variant Clone 146 (ligand, not shown: small tags and cut ends)
chain: B1 chain with F32L, S34F, Q38L, A41S, T74R, K79S
As for B4, the “IC50 of inhibition of U937 cell adhesion to immobilized 7D-VCAM-1” value in assay [1] is 0.8 nM and 0.02 mg/ml. The “fold-improvement in binding relative to Q38L-2D-VCAM-1” value in assay [3] was 37 fold. In assay [4], this molecule had a Kd of 49.7 pM.

B5: Q38L-2D-VCAM-1 (ligand)
chain: B1 chain with P37T, Q38L, L39I, A41S
notes: also called Q38L 2D-VCAM-1 polypeptide; not shown: His tag
For the molecule B5, in assay [2], the “fold-improvement in binding relative to Q38L-2D-VCAM-1” value is 1 fold and the “fold-improvement in binding relative to human 2D-VCAM-1” value worked out at 8 fold.

These data come from patent publication US20120135912A1 (PERSEID THERAPEUTICS, published 2012).
